# Measured values published in patent EP2670776B1 (F. Hoffmann-La Roche AG, dated 2018).
# B1: Knob F241S/F243R (knob Fc with F241S/F243R mutations) (other, name in EU numbering)
# chain: DKTHTSPPSPAPELLGGPSVSLRPPKPKDTLMISRTPEVTCVVVDVSHEDPEVKFNWYVDGVEVHNAKTKPREEQYNSTYRVVSVLTVLHQDWLNGKEYKCKVSNKALPAPIEKTISKAKGQPREPQVYTLPPSREEMTKNQVSLWCLVKGFYPSDIAVEWESNGQPENNYKTTPPVLDSDGSFFLYSKLTVDKSRWQQGNVFSCSVMHEALHNHYTQKSLSLSPGK
# notes: Positions are EU numbers, not positions on the entry; also called F241S/F243R mutant knob
# Key:
# [1] = target: B1; experiment: SPR (BioRad ProteOn), ligand hole wild-type immobilized on NHS activated sensor, analyte knob F241S/F243R 6.25-200 nM
# hole F241S/F243R = target: T1, hole F241S/F243R (human, UniProt P0DOX5 223-449 = IgG part, F241S; F243R); experiment: SPR (BioRad ProteOn), ligand hole F241S/F243R immobilized on NHS activated sensor, analyte knob F241S/F243R 6.25-200 nM
# T1 construct: SPR ligand named only 'hole F241S/F243R'; Positions are EU numbers
Kd [1] [nM],Kd (hole F241S/F243R) [nM],Binder
< 10,–,"hole Fc, wild-type hole (single Fc chain, hinge cysteines mutated to serine) (other, IgG1 Fc with T366S, L368A, Y407V only, made in E. coli in the same manner as the knob/knob Fc; also called hole wild-type; hole/hole homodimer) DKTHTSPPSPAPELLGGPSVFLFPPKPKDTLMISRTPEVTCVVVDVSHEDPEVKFNWYVDGVEVHNAKTKPREEQYNSTYRVVSVLTVLHQDWLNGKEYKCKVSNKALPAPIEKTISKAKGQPREPQVYTLPPSREEMTKNQVSLSCAVKGFYPSDIAVEWESNGQPENNYKTTPPVLDSDGSFFLVSKLTVDKSRWQQGNVFSCSVMHEALHNHYTQKSLSLSPGK"
–,< 10,B1
